From patent US20190218479A1, “Stabilized Liquid Peroxide Compositions” (Novozymes A/S, priority 2016, published 2019)

Experiments:
Format in all cases: physicochemical
[1] = Residual hydrogen peroxide after storage, permanganate titration
Method: Residual hydrogen peroxide (H2O2) was measured by permanganate titration (reduction of potassium permanganate by hydrogen peroxide in sulfuric acid).

[2] = target: T1, Subtilisin1 (Lederbergia lenta, UniProt P29600, M216S); experiment: Residual activity of Subtilisin1 after storage in peroxide model detergents with or without subtilisin stabilizers (N,N-dimethylcasein/TNBS)
Description: Chemicals used as buffers and substrates were commercial products of at least reagent grade. Subtilisin1 has the amino acid sequence as shown in SEQ ID NO: 2, which is a subtilisin having a M216 substitution according to the invention. Subtilisin2 has the amino acid sequence as shown in SEQ ID NO: 1, which is a reference subtilisin not covered by the invention. The stock solution of each subtilisin contains 4.4% w/w of active enzyme protein. Stabilizer1: Cbz-Gly-Ala-Tyr-H (C-terminal aldehyde), wherein Cbz is benzyloxycarbonyl; which is a subtilisin stabilizer according to the invention. When used in the examples below, Stabilizer1 was added to the subtilisin stock solution at a concentration of 0.28% w/w. Stabilizer2: Cbz-Gly-Ala-NHCH(CH2C6H4pOH)CH(OH)(OSO3)Na (hydrosulfite adduct of a C-terminal aldehyde) wherein Cbz is benzyloxycarbonyl; which is a subtilisin stabilizer according to the invention. When used in the examples below, Stabilizer2 was added to the subtilisin stock solution at a concentration of 0.35% w/w. Stabilizer3: MeOCO-Val-Ala-Leu-H (C-terminal aldehyde). When used in the examples below, Stabilizer3 was added to the subtilisin stock solution at a concentration of 0.28% w/w. Stabilizer4: 4-formyl-phenyl-boronic acid (4-FPBA); which is a reference protease stabilizer not covered by the invention. When used in the examples below, Stabilizer4 was added to the subtilisin stock solution at a concentration of 3.4% w/w.
(§1) The compositions were prepared as shown in the examples and samples stored in closed vials for storage. Residual activity was measured by comparing activity in a stored sample at the time of taken out of incubation without freezing and comparing activity to a freshly prepared sample without peroxide and dividing activity in the stored sample with activity in the fresh sample.
(§2) Activity analysis is performed by analysing protease activity by hydrolysis of N,N-dimethylcasein to produce a carboxylic acid and a primary amine compounds. The primary amines that are formed react, under alkaline conditions, with tri-nitrobenzenesulfonic acid (TNBS) to form a colored complex. The amount of colored complex that forms over the fixed reaction period at a constant temperature (530 seconds at 40° C.; complex absorbance is measured at 405 nm) is related to the amount of active protease present in the sample. The amount of colored product complex produced is compared to a standard curve based on known protease concentrations to calculate the amount of active protease in the detergent sample. The amount of protease activity at a specific time point is compared to the t=0 activity level to calculate the % active protease remaining.
This study examined Subtilisin1 stability in the presence of hydrogen peroxide, with and without subtilisin stabilizers (Stabilizer4 and Stabilizer2) in two different model detergents at pH 7 and 9.

[3] = Stability of Subtilisin1 and Subtilisin2 in the liquid peroxide composition of Table 1 (residual protease activity, N,N-dimethylcasein/TNBS); details: for % Subtilisin residual activity after 4 weeks: liquid peroxide composition in Table 1 (0.8% H2O2, pH 7.0)
Method: as §1, §2

[4] = target: T1, Subtilisin1; experiment: Residual activity of Subtilisin1 after storage in peroxide model detergents with or without subtilisin stabilizers (N,N-dimethylcasein/TNBS); remark: listed apart in the source

B1: Subtilisin1: subtilisin with amino acid sequence SEQ ID NO: 2, having a M216 substitution according to the invention (protein)
chain: AQSVPWGISRVQAPAAHNRGLTGSGVKVAVLDTGISTHPDLNIRGGASFVPGEPSTQDGNGHGTHVAGTIAALNNSIGVLGVAPSAELYAVKVLGASGSGSVSSIAQGLEWAGNNGMHVANLSLGSPSPSATLEQAVNSATSRGVLVVAASGNSGAGSISYPARYANAMAVGATDQNNNRASFSQYGAGLDIVAPGVNVQSTYPGSTYASLNGTSSATPHVAGAAALVKQKNPSWSNVQIRNHLKNTATSLGSTNLYGSGLVNAEAATR
modifications: Variant of SEQ ID NO 1
For B1, the “Residual H2O2 after 4 weeks” value ([1]; liquid peroxide composition in Table 1, 22° C.) was 99.0%, the “Residual H2O2 after 4 weeks” value ([1]; liquid peroxide composition in Table 1, 30° C.) was 98.7% and the “Residual H2O2 after 4 weeks” value ([1]; liquid peroxide composition in Table 1, 37° C.) was 97.8%. The “Residual H2O2 (after storage)” value ([1]; nonionic laundry detergent in Table 7, relative to initially added H2O2 = 1%, 22° C., pH 7) was 95%, the “Residual H2O2 (after storage)” value ([1]; nonionic laundry detergent in Table 7, relative to initially added H2O2 = 1%, 22° C., pH 9) was 95% and the “Residual H2O2 (after storage)” value ([1]; nonionic laundry detergent in Table 7, relative to initially added H2O2 = 1%, 30° C., pH 7) was 94%. For the same molecule, the “Residual H2O2 (after storage)” value ([1]; nonionic laundry detergent in Table 7, relative to initially added H2O2 = 1%, 30° C., pH 9) was 94%, the “Residual H2O2 (after storage)” value ([1]; nonionic laundry detergent in Table 7, relative to initially added H2O2 = 1%, 37° C., pH 7) was 92% and the “Residual H2O2 (after storage)” value ([1]; nonionic laundry detergent in Table 7, relative to initially added H2O2 = 1%, 37° C., pH 9) was 91%. For the same molecule, the “Residual H2O2 (after storage)” value ([1]; nonionic pretreatment detergent in Table 4, relative to initially added H2O2 = 1%, 22° C., pH 7) was at least 100%, the “Residual H2O2 (after storage)” value ([1]; nonionic pretreatment detergent in Table 4, relative to initially added H2O2 = 1%, 22° C., pH 9) was 93% and the “Residual H2O2 (after storage)” value ([1]; nonionic pretreatment detergent in Table 4, relative to initially added H2O2 = 1%, 30° C., pH 7) was at least 100%. For the same molecule, the “Residual H2O2 (after storage)” value ([1]; nonionic pretreatment detergent in Table 4, relative to initially added H2O2 = 1%, 30° C., pH 9) was 91%, the “Residual H2O2 (after storage)” value ([1]; nonionic pretreatment detergent in Table 4, relative to initially added H2O2 = 1%, 37° C., pH 7) was at least 100% and the “Residual H2O2 (after storage)” value ([1]; nonionic pretreatment detergent in Table 4, relative to initially added H2O2 = 1%, 37° C., pH 9) was 90%. The “Residual H2O2 (after storage)” value ([1]; nonionic/anionic laundry detergent in Table 13, relative to initially added H2O2 = 1%, 22° C., pH 7) was 101%, the “Residual H2O2 (after storage)” value ([1]; nonionic/anionic laundry detergent in Table 13, relative to initially added H2O2 = 1%, 22° C., pH 9) was 95% and the “Residual H2O2 (after storage)” value ([1]; nonionic/anionic laundry detergent in Table 13, relative to initially added H2O2 = 1%, 30° C., pH 7) was 99%. For the same molecule, the “Residual H2O2 (after storage)” value ([1]; nonionic/anionic laundry detergent in Table 13, relative to initially added H2O2 = 1%, 30° C., pH 9) was 92%, the “Residual H2O2 (after storage)” value ([1]; nonionic/anionic laundry detergent in Table 13, relative to initially added H2O2 = 1%, 37° C., pH 7) was 101% and the “Residual H2O2 (after storage)” value ([1]; nonionic/anionic laundry detergent in Table 13, relative to initially added H2O2 = 1%, 37° C., pH 9) was 97%. The “Residual H2O2 (after storage)” value ([1]; nonionic/anionic pretreatment detergent in Table 10, relative to initially added H2O2 = 1%, 22° C., pH 7) was 88%, the “Residual H2O2 (after storage)” value ([1]; nonionic/anionic pretreatment detergent in Table 10, relative to initially added H2O2 = 1%, 30° C., pH 7) was 86% and the “Residual H2O2 (after storage)” value ([1]; nonionic/anionic pretreatment detergent in Table 10, relative to initially added H2O2 = 1%, 37° C., pH 7) was 100%. For the same molecule, the “Residual H2O2 (after storage)” value ([1]; nonionic/anionic pretreatment detergent in Table 10, relative to initially added H2O2 = 1%, 37° C., pH 9) was 95%, the “Residual H2O2 (after storage)” value ([1]; nonionic/anionic pretreatment detergent in Table 16, relative to initially added H2O2 = 2%, 22° C., pH 7) was 87% and the “Residual H2O2 (after storage)” value ([1]; nonionic/anionic pretreatment detergent in Table 16, relative to initially added H2O2 = 2%, 30° C., pH 7) was 84%. The “Residual H2O2 (after storage)” value ([1]; nonionic/anionic pretreatment detergent in Table 16, relative to initially added H2O2 = 2%, 37° C., pH 7) was 90%, the “Residual H2O2 (after storage)” value ([1]; nonionic/anionic pretreatment detergent in Table 16, relative to initially added H2O2 = 2%, 37° C., pH 9) was 92% and the “Residual activity of Subtilisin1 after storage” value (shortened to “Residual activity of Subtilisin1”) ([2]; liquid nonionic laundry detergent in Table 7 (1.0% H2O2), 22° C., pH 7) was 63%. For the same molecule, the “Residual activity of Subtilisin1” value ([2]; liquid nonionic laundry detergent in Table 7 (1.0% H2O2), 22° C., pH 9) was 75%, the “Residual activity of Subtilisin1” value ([2]; liquid nonionic laundry detergent in Table 7 (1.0% H2O2), 30° C., pH 7) was 47% and the “Residual activity of Subtilisin1” value ([2]; liquid nonionic laundry detergent in Table 7 (1.0% H2O2), 30° C., pH 9) was 68%. The “Residual activity of Subtilisin1” value ([2]; liquid nonionic laundry detergent in Table 7 (1.0% H2O2), 37° C., pH 7) was 30%, the “Residual activity of Subtilisin1” value ([2]; liquid nonionic laundry detergent in Table 7 (1.0% H2O2), 37° C., pH 9) was 45% and the “Residual activity of Subtilisin1” value ([2]; liquid nonionic pretreatment detergent in Table 4 (1.0% H2O2), 22° C., pH 7) was 85%. The “Residual activity of Subtilisin1” value ([2]; liquid nonionic pretreatment detergent in Table 4 (1.0% H2O2), 22° C., pH 9) was 40%, the “Residual activity of Subtilisin1” value ([2]; liquid nonionic pretreatment detergent in Table 4 (1.0% H2O2), 30° C., pH 7) was 65% and the “Residual activity of Subtilisin1” value ([2]; liquid nonionic pretreatment detergent in Table 4 (1.0% H2O2), 30° C., pH 9) was 19%. The “Residual activity of Subtilisin1” value ([2]; liquid nonionic pretreatment detergent in Table 4 (1.0% H2O2), 37° C., pH 7) was 44%, the “Residual activity of Subtilisin1” value ([2]; liquid nonionic pretreatment detergent in Table 4 (1.0% H2O2), 37° C., pH 9) was 12% and the “Residual activity of Subtilisin1” value ([2]; liquid nonionic/anionic laundry detergent in Table 13 (1.0% H2O2), 22° C., pH 7) was 84%. For the same molecule, the “Residual activity of Subtilisin1” value ([2]; liquid nonionic/anionic laundry detergent in Table 13 (1.0% H2O2), 22° C., pH 9) was 63%, the “Residual activity of Subtilisin1” value ([2]; liquid nonionic/anionic laundry detergent in Table 13 (1.0% H2O2), 30° C., pH 7) was 62% and the “Residual activity of Subtilisin1” value ([2]; liquid nonionic/anionic laundry detergent in Table 13 (1.0% H2O2), 30° C., pH 9) was 34%. The “Residual activity of Subtilisin1” value ([2]; liquid nonionic/anionic laundry detergent in Table 13 (1.0% H2O2), 37° C., pH 7) was 40%, the “Residual activity of Subtilisin1” value ([2]; liquid nonionic/anionic laundry detergent in Table 13 (1.0% H2O2), 37° C., pH 9) was 23% and the “Residual activity of Subtilisin1” value ([2]; liquid nonionic/anionic pretreatment detergent in Table 10 (1.0% H2O2), 22° C., pH 7) was 79%. For the same molecule, the “Residual activity of Subtilisin1” value ([2]; liquid nonionic/anionic pretreatment detergent in Table 10 (1.0% H2O2), 22° C., pH 9) was 57%, the “Residual activity of Subtilisin1” value ([2]; liquid nonionic/anionic pretreatment detergent in Table 10 (1.0% H2O2), 30° C., pH 7) was 66% and the “Residual activity of Subtilisin1” value ([2]; liquid nonionic/anionic pretreatment detergent in Table 10 (1.0% H2O2), 30° C., pH 9) was 47%. The “Residual activity of Subtilisin1” value ([2]; liquid nonionic/anionic pretreatment detergent in Table 10 (1.0% H2O2), 37° C., pH 7) was 52%, the “Residual activity of Subtilisin1” value ([2]; liquid nonionic/anionic pretreatment detergent in Table 10 (1.0% H2O2), 37° C., pH 9) was 29% and the “Residual activity of Subtilisin1” value ([2]; liquid nonionic/anionic pretreatment detergent in Table 16 (2.0% H2O2), 22° C., pH 7) was 85%. For the same molecule, the “Residual activity of Subtilisin1” value ([2]; liquid nonionic/anionic pretreatment detergent in Table 16 (2.0% H2O2), 22° C., pH 9) was 30%, the “Residual activity of Subtilisin1” value ([2]; liquid nonionic/anionic pretreatment detergent in Table 16 (2.0% H2O2), 30° C., pH 7) was 69% and the “Residual activity of Subtilisin1” value ([2]; liquid nonionic/anionic pretreatment detergent in Table 16 (2.0% H2O2), 30° C., pH 9) was 12%. For the same molecule, the “Residual activity of Subtilisin1” value ([2]; liquid nonionic/anionic pretreatment detergent in Table 16 (2.0% H2O2), 37° C., pH 7) was 50%, the “Residual activity of Subtilisin1” value ([2]; liquid nonionic/anionic pretreatment detergent in Table 16 (2.0% H2O2), 37° C., pH 9) was 5% and the “% Subtilisin residual activity after 4 weeks” value (“% Subtilisin residual activity” for short) ([3]; 22° C.) was 81%. The “% Subtilisin residual activity” value ([3]; 30° C.) was 61%, the “% Subtilisin residual activity” value ([3]; 37° C.) was 46% and the “stability in the liquid peroxide composition, compared with Subtilisin2” value ([3]; liquid peroxide composition in Table 1, summary of Table 2) was “much better”. The “Residual activity after storage for 2 weeks at 30° C.” value ([4]; Subtilisin1 in “Mix Laundry” (Table 19, pH 7.5) no H2O2, no sodium salicylate, no polyDADMAC) was 73%, the “Residual activity after storage for 2 weeks at 30° C.” value ([4]; Subtilisin1 in “Mix Laundry” (Table 19, pH 7.5) with 1% H2O2, with sodium salicylate, with polyDADMAC) was 42% and the “Residual activity after storage for 2 weeks at 37° C.” value ([4]; Subtilisin1 in “NI pretreat” (Table 19, pH 7.0) with 1% H2O2, with sodium salicylate, with polyDADMAC) was 38%. The “Residual activity after storage for 2 weeks at 37° C.” value ([4]; Subtilisin1 in “NI pretreat” (Table 19, pH 7.0) without H2O2, no sodium salicylate, no polyDADMAC) was 82%.
